The source of these data is PMC8148087.

Test [1] addresses FAM-HLA (model peptide HLA attached to a FAM fluorophore). As to the kind of experiment: fluorescence polarisation.
For test [2] the target is unchanged. As to the kind of experiment: fluorescence polarisation. This is another data set of the same source. In general terms: Polarisation of emitted light reports the rotation of a fluorescent probe.

Like-named read-outs stand apart in the source and are kept apart here.

For orientation: Kd means the equilibrium constant for the complex coming apart. A high value points to weaker binding. For “E. coli DnaK Y145A (from UniProt P0A6Y8 1-638) (natural protein)”, the Kd in test [1] was above 30 µM; in test [2], 9 µM.
“E. coli DnaK Y145W (from UniProt P0A6Y8 1-638) (natural protein)”: the values for the Kd in test [1] and in test [2] were 4 µM and 8 µM, respectively.
For “E. coli DnaK, wild type (from UniProt P0A6Y8 1-638) (natural protein)” the same measures were above 30 µM and 9 µM.
As for “human Hsc70 Y149A (from UniProt P11142 1-646) (natural protein)”, in test [1], the Kd is 4 µM.
With “human heat shock cognate protein 70 (Hsc70), wild type (from UniProt P11142 1-646) (natural protein)”, the values for the Kd in test [1] and in test [2] were 26 µM and 5 µM, respectively.
